Assay results taken from patent publication US8198235B2, “Use of GILZ protein expressed in dendritic cells to modulate an antigen-specific immune response” (Assistance Publique-Hopitaux de Paris, priority 2004, dated 2012).

B1: IL-10: recombinant human IL-10 (rhIL-10, DNAX) (protein, UniProt P22301 19-178, looked up)
Interleukin-10: SPGQGTQSENSCTHFPGNLPNMLRDLRDAFSRVKTFFQMKDQLDNLLLKESLLEDFKGYLGCQALSEMIQFYLEEVMPQAENQDPDIKAHVNSLGENLKTLRLRLRRCHRFLPCENKSKAVEQVKNAFNKLQEKGIYKAMSEFDIFINYIEAYMTMKIRN

Assays:
Assay type in all cases: cell-based, human
[1] = tested on: regulatory T lymphocytes; assay: Induction of regulatory T cells: sensitized CD4+ T cells added to autologous PBMCs stimulated with PPD or CMV; details: CD4+ T sensitized with PPD-loaded dendritic cells treated with dexamethasone and control siRNA
From the text: To evaluate the induction of the regulatory T cells (Tregs), immature monocyte-derived dendritic cells treated on the fifth day of culture (D5) with a controlled siRNA or an siRNA targeting GILZ (siRNA GILZ) alone, or else with either dexamethasone (DEX) or IL-10, or not treated, and then treated with the PPD on D7, were cocultured with CD4^+ T cells, as described in example 2. The CD4^+ T cells were purified on the seventh day of DC-CD4^+ T coculture and added in increasing amounts to 10^5 autologous PBMCs stimulated with PPD (1 μg/ml, STATENS SERUM INSTITUTE) or the cytomegalovirus (CMV, 25 μg/ml, BEHRING).
The hypothesis that the GILZ-expressing dendritic cells inhibit the CD4^+ T lymphocyte response by inducing regulatory T lymphocytes during antigen presentation was verified experimentally. Dendritic cells were treated with a control or anti-GILZ siRNA, alone or with dexamethasone, and with PPD (first culture). After washing, the dendritic cells were used to stimulate autologous CD4^+ T lymphocytes. The CD4^+ T lymphocytes of this second culture (sensitized CD4^+ T lymphocytes) were purified and added in increasing amounts to autologous PBMCs stimulated either with PPD or with CMV (third culture). The CD4^+ T lymphocytes sensitized with nontreated dendritic cells or dendritic cells treated with a control siRNA have no effect on the proliferative response of the third culture. […]

[2] = tested on: GILZ gene; assay: Quantitative RT-PCR analysis of GILZ gene expression in monocyte derived dendritic cells; details: added on fifth day of culture; Dex 10^-7 M, IL-10 100 ng/ml, TGFβ 20 ng/ml; detected before and after CD40L
Experimental: (§1) Immature monocyte derived dendritic cells (iMDDCs) were prepared as described in Palucka et al., J. Immunol., 1998, 160, 4587-4595, apart from minor modifications. Briefly, human monocytes were isolated from the peripheral blood mononucleocell fraction by negative selection, according to the manufacturer's (DYNAL) recommendations. The monocytes (1 to 2×10^5 cells/ml) were cultured for 7 days in the presence of GM-CSF and IL-4 (100 ng/ml and 50 ng/ml, respectively, SCHERING-PLOUGH). The maturation of the dendritic cells (MDDCs) was induced in the presence of CD40L (250 ng/ml; IMMUNEX). Dexamethasone (DEX, SIGMA), recombinant human IL-10 (rhIL-10, DNAX) and TGFβ (R&D) were used at the following respective concentrations: 10^−7 M, 100 ng/ml and 20 ng/ml. For the in vivo experiments, the antigen-presenting cells (APCs) were purified using the monocyte negative selection kit according to the manufacturer's (DYNAL) recommendations.
The expression of the human GILZ gene was analyzed by real time RT-PCR according to the manufacturer's recommendations (Lightcycler™, ROCHE), using the pair of primers described in Berrebi et al. BLOOD, 2003, 101, 729-738 and the human β-actin gene as internal control.

[3] = tested on: CCL3, CCL5 and CXCL8; assay: Chemokine ELISA in dendritic cell culture supernatant after CD40L; details: dendritic cells treated before addition of CD40L
Experimental: as §1
The production of chemokines in the culture supernatant of the dendritic cells was analyzed using ELISA kits (R&D SYSTEMS) according to the manufacturer's instructions.

[4] = tested on: monocyte derived dendritic cells; assay: Dendritic cell phenotype by flow cytometry (CD80, CD83, CD86, B7-H1); details: treated D5, CD40L D7, phenotype D9
Experimental: as §1
The dendritic cell phenotype was analyzed by four-color flow cytometry, using the following monoclonal antibodies: phycoerythrin-coupled anti-CD83 (CD83-PE, COULTER); phycoerythrin-coupled anti-CD80 (CD80-PE, BD BIOSCIENCES); anti-B7-H1 (CLINISCIENCES) and phycoerythrin-coupled anti-CD86 (CD86-PE, BD PHARMINGEN). The anti-B7-H1 antibody is detected using a phycoerythrin-coupled secondary antibody (BD PHARMINGEN). […]

Molecule	anti-CMV response of the third culture [1]	expression of GILZ (RT-PCR) [2]	CD40L-induced production of the chemokines CCL3, CCL5 and CXCL8 [3]	expression of B7-H1 [4]	expression of CD80, CD83 and CD86 [4]
C[C@@H]1C[C@H]2[C@@H]3CCC4=CC(=O)C=C[C@]4(C)[C@@]3(F)[C@@H](O)C[C@]2(C)[C@@]1(O)C(=O)CO [dexamethasone]	no effect				
TGFβ		stimulates the expression of GILZ			
B1		stimulates the expression of GILZ	partially inhibited	stimulate	inhibit
